Tests used:
[1] = test system: ThHSF1 DBD (Trametes hirsuta AH28-2); test: FP; conditions: 5x binding buffer pH 6.8 (25 mM HEPES, 5 mM MgCl2, 150 mM KCl, 1 mM DTT, 5% glycerol), EMSA 100 nM probe, 16 C 30 min, then 37 C 30 min, 6% native PAGE
[2] = test system: ThHSF1 full-length (Trametes hirsuta AH28-2); test: FP; conditions: without ThHspA1, 5x binding buffer pH 6.8 (25 mM HEPES, 5 mM MgCl2, 150 mM KCl, 1 mM DTT, 5% glycerol), EMSA 100 nM probe, 16 C 30 min, then 37 C 30 min, 6% native PAGE
[3] = molecular target: ThHSF1 full-length;ThHspA1 full-length (Trametes hirsuta AH28-2;Trametes hirsuta AH28-2) (UniProt A0AAD7TN48); test: FP; conditions: ThHspA1 added, 5x binding buffer pH 6.8 (25 mM HEPES, 5 mM MgCl2, 150 mM KCl, 1 mM DTT, 5% glycerol), EMSA 100 nM probe, 16 C 30 min, then 37 C 30 min, 6% native PAGE
[4] = molecular target: ThHSF1, heat shock transcription factor of Trametes hirsuta AH28-2 (full-length protein) (Trametes hirsuta AH28-2); test: ITC; conditions: natural protein
[5] = molecular target: ThHSF1, heat shock transcription factor of Trametes hirsuta AH28-2 (full-length protein) (Trametes hirsuta AH28-2); test: ITC; iTC200, 25°C; 50 mM Tris, 500 mM NaCl, pH 7.5; 5 µM ThHspA1 titrated against 1 µM ThHSF1
[6] = molecular target: ThHspA1, Hsp70 homolog of Trametes hirsuta AH28-2 (full-length protein) (Trametes hirsuta AH28-2); test: dynamic light scattering; purified full-length ThHSF1 alone, ThHspA1 alone and the two together (Fig. S10); conditions not given

Row | Substance | Kd [1] [µM] | other results
1 | AGTTCAGTATGTCTTGAAGATTATGCGGTCAGAAAC (double strand) [lacB promoter probe] | 5.46 | –
2 | TACGCCAAGAACTGACTTACATGCAA (double strand) [lacA mutant probe 5] | 11.7 | –
3 | TACGCCTAGAACTGACTTACATGCAA (double strand) [lacA mutant probe 4] | 5.2 | –
4 | TACGCCTTAAACTGACTTACATGCAA (double strand) [lacA mutant probe 1] | 4.59 | –
5 | TACGCCTTATACTGACTTACATGCAA (double strand) [lacA mutant probe 2] | 14.7 | –
6 | TACGCCTTGAACTGACTTACATGCAA (double strand) [lacA promoter probe WT (26 bp)] | 0.961 | Kd [2]: 1.03 µM; Kd [3]: 0.673 µM
7 | TTCGAACGCACCGAAACCATCCCGAACTTGGTCGAA (double strand) [lacF promoter probe] | 4.83 | –
8 | ThHspA1, Hsp70 homolog of Trametes hirsuta AH28-2 (full-length protein) | – | Ka [4]: 1.16e+07 M⁻¹
9 | ThHspA1, Hsp70 homolog of Trametes hirsuta AH28-2 (full-length protein) (natural protein) | – | Kd [5]: 0.105 µM; stoichiometry N [6]: 6

From PMC12772356
